In general, EC50 refers to the concentration that produces a half-maximal response. High values mean a less potent agent, low ones a more potent agent.

The record followed here is patent US20230331868A1 (Seagen, published 2023).

In assay [1] the target is T1, bovine submaxillary mucin (bovine).
T1 construct: Natural mucin preparation; also called BSM
As to the kind of experiment: ELISA on BSM-coated wells; antibody from one liter production. On the procedure:
(§1) For BSM ELISA analysis, antibodies were screened over a concentration range of 0 to 100 nM on bovine submaxillary mucin (BSM) coated wells. A subset of wells were treated with mild periodate solution before antibody binding to remove the side chain on terminal sialic acid residues (destroying the STn antigen). Optical densities of periodate and non-periodate-treated wells were determined and log transformed then fit to a nonlinear regression model to obtain a dose response curve. Optical density values obtained from periodate-treated wells were subtracted from non-periodate treated wells to obtain a periodate-sensitive STn binding curve and corresponding EC₅₀ values.
Based on the results of characterization experiments, two antibodies from each clone group were selected for one liter expression and resulting antibodies were tested again according to the same procedures (see results presented in the following Table).
(In general: An ELISA detects its analyte on a solid surface through an enzyme-linked reagent.)

The target in assay [2] is T1, bovine submaxillary mucin. As to the kind of experiment: ELISA on BSM-coated wells; periodate-sensitive signal. On the procedure:
as §1

B1: Humanized 2G12-2B2 VL2,VH2 (antibody, V domains shown)
VH: QVQLVQSGAEVKKPGASVKISCKASGYTFTDHAIHWVRQAPGQGLEWIGYFSPGNDDIKYNEKFRGRVTLTADKSSSTAYMELRSLRSDDTAVYFCKRSLSTPYWGQGTLVTVSS
VL: DIVMTQSPDSLAVSLGERVTMSCKSSQSLLNRGNHKNYLTWYQQKPGQPPKLLIYWASTRESGVPDRFSGSGSGTDFTLTISSLQAEDVAVYYCQNDYTYPYTFGQGTKVEIK
notes: also called Hu2G12-2B2,L2H2; Hu2G12-2B2 L2H2
Regarding B1, the EC50 is 1.82 nM in assay [1] and 2.9 nM in assay [2].

B2: Humanized 3F1 VL1,VH1 (antibody, V domains shown)
VH: QVQLVQSGAEVKKPGASVKVSCKASGYTFTDHAIHWVRQAPGQGLEWMGYISPGNGDIKYNEKFKDRVTMTADKSSSTAYMQLRSLRSDDTAVYFCKRSLLALDYWGQGTLVTVSS
VL: DIQMTQSPSSLSASVGDRVTITCKASQDVGTNIAWYQQKPGKAPKVLIYSASTRHTGVPSRFSGSGSGTDFTLTISSLQPEDFATYFCQQYSSFPLTFGQGTKVEIK
notes: also called Hu3F1,L1H1; Hu3F1 L1H1
In the case of B2, the EC50 in assay [1] came out at 0.86 nM; in assay [2], 1.8 nM.
